Earlier results on one substance are cited in patent US10131637B2, “Anti-PCSK9 compounds and methods for the treatment and/or prevention of cardiovascular diseases” (Shifa Biomedical Corporation, priority 2013, dated 2018).

This data set deals with T1, PCSK9 (Homo sapiens, UniProt Q8NBP7).
T1 construct: slashed LDL levels by more than 60% in clinical trial; host or cells: patients in a clinical trial (endogenous circulating PCSK9)
To be noted: single injection, clinical trial.

“REGN727: Regeneron/Sanofi monoclonal antibody blocking PCSK9”: the “reduction of LDL levels” value is reported as “more than 60%”.
